# Measurements: US20240148828A1
# Biological target: NKG2D on human γδ T cells (human) (UniProt P26718)
# Assay: cell-based or functional assay
# Chain of NKG2D on human γδ T cells (human) (P26718 whole entry, stated change not applied): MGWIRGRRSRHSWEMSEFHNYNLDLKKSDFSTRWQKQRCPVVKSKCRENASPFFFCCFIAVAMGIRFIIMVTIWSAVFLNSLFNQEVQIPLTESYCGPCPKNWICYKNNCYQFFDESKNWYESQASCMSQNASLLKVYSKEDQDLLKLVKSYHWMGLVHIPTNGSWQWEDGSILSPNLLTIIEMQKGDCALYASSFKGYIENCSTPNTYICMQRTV
row,"frequency of Vγ9+ T cells expressing CD107a (plate-bound, together with BTN2A1/3A1-Fc-CD19scFv)",Substance
1,30 % γδ T cells,"anti-NKG2D antibody (Clone #149810, R&D Systems)"
2,18 % γδ T cells,MICA-Fc fusion protein (from UniProt Q29983 24-307)
3,18 % γδ T cells,MICB-Fc fusion protein (from UniProt Q29980 23-298)
